These results are taken from US20120045391A1 (NATIONAL RESEARCH COUNCIL CANADA, published 2012).

The term Kd denotes a measure of binding affinity in units of concentration.

Where a chain is given by its changes, count along the chain named.

Assay [1] deals with T1, IGFBP7 (recombinant; preparation not specified) (UniProt Q16270 27-282).
T1 construct: also called immobilized IGFBP7; recombinant IGFBP7
T1 sequence (looked up): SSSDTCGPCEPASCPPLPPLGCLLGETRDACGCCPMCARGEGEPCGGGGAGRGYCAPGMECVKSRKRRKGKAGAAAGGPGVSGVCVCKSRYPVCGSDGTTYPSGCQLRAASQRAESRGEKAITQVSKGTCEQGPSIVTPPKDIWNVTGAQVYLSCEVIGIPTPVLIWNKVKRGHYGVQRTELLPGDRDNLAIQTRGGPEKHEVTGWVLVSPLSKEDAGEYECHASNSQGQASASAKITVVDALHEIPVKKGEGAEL
Description: SPR, fit to a steady state model.

The target in assay [2] is T2, recombinant protein IGFBP7 from R&D (UniProt Q16270 27-282).
T2 construct: Bought protein immobilized on the Biacore chip; also called recombinant IGFBP7
T2 sequence (looked up): T1 sequence (looked up)
Nature of the assay: SPR, steady state analysis, IGFBP7 as ligand.

Assay [3] concerns the target T3, recombinant custom-synthesized IGFBP7 (UniProt Q16270 27-282).
T3 construct: also called custom-synthesized recombinant IGFBP7
T3 sequence (looked up): T1 sequence (looked up)
Nature of the assay: SPR, steady state analysis, IGFBP7 as ligand. Background: Surface plasmon resonance follows binding to a sensor surface in real time, without labels.

The target in assay [4] is T2, recombinant protein IGFBP7 from R&D. Nature of the assay: SPR, steady state analysis as Scatchard plot, IGFBP7 as ligand.

B1: sdAb clone 4.6-IGFBP7 (VHH)
VHH: QVKLEESGGGSVQPGGSLRLSCAASGRTFSRLAMGWFRQAPGKERELVAGISRSGDGTHYAYSVKGRFTISRDNAANTVELQMNSLKPEDTAVYFCAAARTAFYYYGNDYNYWGQGTQVTVSS
notes: also called IGFBP7-4.6; not shown: c-Myc detection tag and 5xHis purification tag added at the C-terminus by vector pSJF2
On to B1, for which the Kd in assay [1] was ~1000 nM.

B2: sdAb clone 4.43-IGFBP7 (VHH)
VHH: B1 VHH with S11L, P14A, F29S, S30R, L32Y, L47F
notes: not shown: c-Myc detection tag and 5xHis purification tag added at the C-terminus by vector pSJF2
As for B2, the Kd was found to be 40 nM in assay [2], 30 nM in assay [3] and 50 nM in assay [4].
